Data published in the supplement of paper PMC7125110.
± gives the standard error. For some assays here: Variants at the floor of the assay were thinned out.

B1: glmS ribozyme (parent)
chain: AUAAAAGCGCCAGAACUACAGAAAUGUAGUUGACGAGGAGGAGGUUUAUCGAAUUUUCGGCGGAUGCCUCCAAA

How the values were obtained:
Details in all cases: with glucosamine-6-phosphate
[1] = variants of: B1; assay: kcat; higher = faster cleavage; RNA array
How it was run: (§1)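 Barcoded ribozyme variants were transcribed in situ on sequenced MiSeq chips by E. coli RNA polymerase. At 37 °C, a hybridised Cy3 probe tracked them while glucosamine-6-phosphate (40 μM to 10 mM) in HEPES/KCl/Mg(OAc)2 buffer flowed in and tiles were imaged over ~14 h. Per-tile medians of signals normalised to baseline and to non-cleaving reference variants were fit to one- or two-exponential decays, giving kobs. kcat and KM came from weighted Michaelis–Menten fits across concentrations.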

[2] = variants of: B1; assay: KM; higher = weaker cofactor use; RNA array
How it was run: as §1

[3] = variants of: B1; assay: self-cleavage kobs at 40 uM GlcN6P; higher = faster cleavage; RNA array
How it was run: as §1

[4] = variants of: B1; assay: self-cleavage kobs at 10000 uM GlcN6P; higher = faster cleavage; RNA array
How it was run: as §1

[5] = variants of: B1; assay: self-cleavage kobs at 640 uM GlcN6P; higher = faster cleavage; RNA array
How it was run: as §1

[6] = variants of: B1; assay: self-cleavage kobs at 2500 uM GlcN6P; higher = faster cleavage; RNA array
How it was run: as §1

[7] = variants of: B1; assay: self-cleavage kobs at 160 uM GlcN6P; higher = faster cleavage; RNA array
How it was run: as §1

Variant	kcat [1] [s⁻¹]	KM [2] [µM]	self-cleavage kobs at 40 uM GlcN6P [3] [s⁻¹]	self-cleavage kobs at 10000 uM GlcN6P [4] [s⁻¹]	self-cleavage kobs at 640 uM GlcN6P [5] [s⁻¹]	self-cleavage kobs at 2500 uM GlcN6P [6] [s⁻¹]	self-cleavage kobs at 160 uM GlcN6P [7] [s⁻¹]
U46C C58U	3.35e-05 ± 5.4e-07	1400 ± 110	< 1e-05	2.93e-05 ± 9e-06	–	–	–
U46C C58A	0.000527 ± 0.00012	–	–	0.00022 ± 3.4e-05	2.77e-05 ± 9.7e-06	7.47e-05 ± 1.3e-05	–
U45C C68U	0.00315 ± 0.00089	4960 ± 2100	3.71e-05 ± 1e-05	0.00218 ± 0.00028	0.000525 ± 0.00011	0.000877 ± 0.00019	8.24e-05 ± 1.9e-05
U45C C68G	9.46e-05 ± 8.6e-06	714 ± 250	–	8.34e-05 ± 1.2e-05	4.14e-05 ± 1.1e-05	8.62e-05 ± 1.5e-05	–
G44U U54A	0.000233 ± 6.1e-05	–	–	0.000252 ± 6.1e-05	0.000111 ± 3.6e-05	0.000132 ± 4.1e-05	–
U46G A53G	0.00499 ± 0.0025	–	0.000271 ± 7.8e-05	0.00811 ± 0.0028	0.00165 ± 0.00049	0.00267 ± 0.00089	0.000482 ± 0.00011
U46A C61U	< 1e-05	–	–	–	< 1e-05	< 1e-05	< 1e-05
U46A A64G	0.00469 ± 0.0011	2700 ± 990	0.000102 ± 2.3e-05	0.00373 ± 0.00065	0.000754 ± 0.00015	0.00242 ± 0.00047	–
U46A A64C	4.04e-05 ± 4.1e-06	–	< 1e-05	–	–	–	–
G44U U46G	0.000218 ± 4.7e-05	3350 ± 1300	< 1e-05	0.000146 ± 3.9e-05	2.83e-05 ± 1e-05	0.000102 ± 1.5e-05	–
G43A U56A	1.8e-05 ± 3.9e-06	–	–	–	–	–	–
G43C C68G	0.0157 ± 0.0024	265 ± 63	0.00205 ± 0.00027	–	0.0109 ± 0.0018	0.0139 ± 0.0031	0.00622 ± 0.0014
G43U U56C	< 1e-05	–	–	–	–	< 1e-05	< 1e-05
U46G U69A	0.000212 ± 5.4e-05	–	6.14e-05 ± 1.9e-05	0.000143 ± 3.6e-05	0.000212 ± 4.2e-05	0.000306 ± 4.6e-05	9.88e-05 ± 1.7e-05
U46G U69C	0.0015 ± 0.00017	539 ± 120	0.000136 ± 3.6e-05	0.00149 ± 0.00027	0.00072 ± 0.00016	0.00128 ± 0.00028	0.000315 ± 7.8e-05
G44C U47A	8.35e-05 ± 6.6e-06	1270 ± 350	–	7.67e-05 ± 1.8e-05	–	5.07e-05 ± 1.6e-05	–

Variant	kcat [1] [s⁻¹]	KM [2] [µM]	self-cleavage kobs at 40 uM GlcN6P [3] [s⁻¹]	self-cleavage kobs at 10000 uM GlcN6P [4] [s⁻¹]	self-cleavage kobs at 640 uM GlcN6P [5] [s⁻¹]	self-cleavage kobs at 2500 uM GlcN6P [6] [s⁻¹]	self-cleavage kobs at 160 uM GlcN6P [7] [s⁻¹]
G44C U47C	1.4e-05 ± 4.3e-06	–	–	–	–	–	–
U45C U65G	0.000191 ± 3.7e-05	1810 ± 840	–	0.000154 ± 2e-05	4.57e-05 ± 9.8e-06	0.000188 ± 4e-05	–
U46C G66A	0.000975 ± 0.00019	799 ± 250	5.14e-05 ± 1e-05	0.00107 ± 0.00025	0.000364 ± 9.2e-05	0.000662 ± 0.00023	–
G43U U65G	4.38e-05 ± 9.2e-07	2380 ± 190	< 1e-05	3.53e-05 ± 1.1e-05	–	–	–
G43U U55A	2.33e-05 ± 3.8e-07	1170 ± 67	–	–	–	–	< 1e-05
G44U U45G	0.0224 ± 0.0018	3420 ± 360	0.000269 ± 4.1e-05	0.017 ± 0.0022	0.0033 ± 0.00046	0.00801 ± 0.0035	0.00106 ± 0.00018
U45G U55G	0.00804 ± 0.002	2970 ± 1000	0.000146 ± 1.5e-05	0.00624 ± 0.00057	0.00148 ± 0.00024	0.00365 ± 0.00057	0.000304 ± 4.5e-05
U45C U57A	1.9e-05 ± 2.7e-06	–	–	–	–	–	–
U45C U57C	1.67e-05 ± 1e-06	6920 ± 1000	–	–	–	–	–
U45G U65A	0.0042 ± 0.00043	1990 ± 290	8.89e-05 ± 2.1e-05	0.00326 ± 0.00059	0.001 ± 0.00012	0.00264 ± 0.0004	0.000296 ± 5.3e-05
U46C U65G	0.000138 ± 2.3e-05	–	–	0.000113 ± 1.5e-05	2.77e-05 ± 1.3e-05	0.000117 ± 2.4e-05	–
U46C U65A	0.00399 ± 0.0019	–	7.93e-05 ± 2.3e-05	0.00295 ± 0.00065	0.000444 ± 0.00012	0.00143 ± 0.00037	–
U46C U69C	0.00112 ± 0.0002	644 ± 250	5.23e-05 ± 2.2e-05	0.000936 ± 0.00019	0.000644 ± 0.00013	0.00117 ± 0.00032	–
U46G U65C	4.23e-05 ± 1.3e-06	1730 ± 260	–	3.6e-05 ± 7.3e-06	–	–	–
U46G U65G	0.00226 ± 0.00027	2130 ± 380	4.1e-05 ± 8.8e-06	0.0019 ± 0.0003	0.000467 ± 7.5e-05	0.00124 ± 0.00017	0.000189 ± 3.4e-05
U47A U56C	0.00368 ± 0.00095	3940 ± 1500	–	0.00257 ± 0.00031	0.000703 ± 8.8e-05	0.00144 ± 0.00021	0.000111 ± 2.1e-05
